# Results from article PMC6895277.
# Like-named read-outs stand apart in the source and are kept apart here.
# Legend:
# [1] = test system: T1, VEGF165 (human), P15692-4; experiment: SPR; conditions: biotin-dT at T54, SPR: 1x PBS (1 mM KH2PO4, 3 mM Na2HPO4, 155 mM NaCl; 205 mM NaCl for IFNγ), pH 7.4, 0.05% Nonidet P-40, 25°C, EMSA: 1x PBS, 0.05% NP-40, 25°C, 25 nM DNA, 50 nM …
# T1 sequence: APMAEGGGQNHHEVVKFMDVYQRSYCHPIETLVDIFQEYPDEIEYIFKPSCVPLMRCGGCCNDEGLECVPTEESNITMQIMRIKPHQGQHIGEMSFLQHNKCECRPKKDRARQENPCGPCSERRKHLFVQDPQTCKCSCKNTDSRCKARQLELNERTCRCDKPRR
# IFNγ (human) [2] = molecular target: T2, IFNγ (human) (UniProt P01579); experiment: SPR; conditions: biotin-dT at T53, SPR: 1x PBS (1 mM KH2PO4, 3 mM Na2HPO4, 155 mM NaCl; 205 mM NaCl for IFNγ), pH 7.4, 0.05% Nonidet P-40, 25°C, EMSA: 1x PBS, 0.05% NP-40, 25°C, 25 nM DNA, 50 nM …
# T2 sequence: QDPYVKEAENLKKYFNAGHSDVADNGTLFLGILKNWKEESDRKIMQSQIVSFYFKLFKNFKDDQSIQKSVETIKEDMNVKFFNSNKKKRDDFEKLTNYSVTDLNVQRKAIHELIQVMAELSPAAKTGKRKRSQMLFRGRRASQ
# IFNγ (human) [3] = molecular target: T2, IFNγ (human); conditions: N28 and N39 = Ds; biotin-dT at T53; SPR: 1x PBS (1 mM KH2PO4, 3 mM Na2HPO4, 155 mM NaCl; 205 mM NaCl for IFNγ), pH 7.4, 0.05% Nonidet P-40, 25°C; EMSA: 1x PBS, 0.05% NP-40, 25°C, 25 nM DNA, 50 nM …; cited from earlier work
# [4] = test system: T1, VEGF165 (human), P15692-4; conditions: N25 and N34 = Ds (7-(2-thienyl)imidazo[4,5-b]pyridine); biotin-dT at T54; SPR: 1x PBS (1 mM KH2PO4, 3 mM Na2HPO4, 155 mM NaCl; 205 mM NaCl for IFNγ), pH 7.4, 0.05% Nonidet P-40, 25°C; EMSA: 1x PBS, 0.05% NP-40, 25°C, 25 nM DNA, 50 nM …; cited from earlier work
sequence,measurement,setting,value
GCGGTAAGCCGCGTCCGAAGGGGCNTGCGGCGAACCCGAATGGGTCCGCCGCGTAGCG [V-Apt3 (DA)],Kd,[1]; N25 = Ds,0.058 nM
CCCGCCCGGGTCCGCGAAGCGGTAGGTATGGGCTAGGCAGCTGGCGGGCGCGTAGCG [I-Apt4 (AA)],Kd,IFNγ (human) [2],16 nM
CCCGCCCGGGTCCGCGAAGCGGTAGGTNTGGGCTAGGCNGCTGGCGGGCGCGTAGCG [I-Apt1 (DD)],Kd,IFNγ (human) [3],0.033 nM
same,Kd,IFNγ (human) [2]; N28 and N39 = Ds,0.013 nM
GCGGTAAGCCGCGTCCGAAGGGGCATGCGGCGAACCCGAATGGGTCCGCCGCGTAGCG [V-Apt4 (AA)],Kd,[1],0.16 nM
GCGGTAAGCCGCGTCCGAAGGGGCNTGCGGCGANCCCGAATGGGTCCGCCGCGTAGCG [V-Apt1 (DD)],Kd,[4],0.001 nM
same,Kd,"[1]; N25 and N34 = Ds (7-(2-thienyl)imidazo[4,5-b]pyridine)",0.0016 nM
GCGGTAAGCCGCGTCCGAAGGGGCATGCGGCGANCCCGAATGGGTCCGCCGCGTAGCG [V-Apt2 (AD)],Kd,[1]; N34 = Ds,0.002 nM
